The results in this text go back to the supplement of paper PMC9170038.

The data set deals with MS2 coat protein. The data set is described as follows: apparent KD of MS2 coat protein; designed switch direction (-1 OFF switch, 1 ON switch): 1; higher = weaker reporter binding. The essentials: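 An oligonucleotide input, 200 uM small-molecule ligand, or no input was present during titration of SNAP-549-labelled MS2 coat protein, which was doubled from 0.7 or 1.5 nM to 3 µM. Designed RNA switches had been transcribed on Illumina chips by stalled E. coli RNA polymerase. Apparent KD per design is the median over clusters of curves fitted to normalised cluster fluorescence.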

The mark [1] stands for this setting: Eterna round: R95, input ligand: FMN 200 uM.
Where [2] appears, read: Eterna round: R95, input ligand: microRNA oligo, concentration not stated.
Setting [3] is: Eterna round: R95, input ligand: none.
Setting [4] is: input ligand: microRNA oligo, concentration not stated.

“GGGCCAGCCUGUGCUGGGCCUUAGCAUGCACAUGAGGAUCACCCAUGUCGUGUACAUGCUUUUUGCUCGUCUUUAAA [Photon Torp-09] (puzzle: Sensor for hsa-mir-208a)”: the “apparent KD of MS2 coat protein” value turned out to be 0.0792 µM under setting [1], 0.0156 µM under setting [2] and 0.0932 µM under setting [3].

Turning to “GCGGAACAUGAGGAUCACCCAUGUAAAGGGUGUAAAGGAUAUUAUUGGGAGAAGGUAGGGUAAGAAGGUUGCUUGG [JR_SS1_Sub088] (puzzle: Same State 1)”, the “apparent KD of MS2 coat protein” value came to 0.609 µM under setting [1], 0.666 µM under setting [2] and 1.24 µM under setting [3].

Take “UAGUUACUAUCUCAGGAUAUCAUGUCAAAGACAUGAGGAUCACCCAUGUACCAGGAAACUGGUUAUGAGAAGGGAGAUAGUAACU [Mat - Same State 2 - Mod - D55] (puzzle: Same State 2)”: the “apparent KD of MS2 coat protein” value runs as follows: under setting [1], 0.134 µM; under setting [2], 0.104 µM; under setting [3], 1.07 µM.

In the case of “AGUCCUGCCUGAGCAGGACAAAAGCAUGUACAUGAGGAUCACCCAUGUCAUGUACAAGCUUUUUGCUCGUCUUAAUA [Mat - hsa-mir-208a - Mod of JL - D41] (puzzle: Sensor for hsa-mir-208a)”, the “apparent KD of MS2 coat protein” value was found to be 0.556 µM under setting [1], 0.0154 µM under setting [2] and 0.854 µM under setting [3].

In the case of “CAGCGCUGUCGAGAGGAUAUGCGGUGAUGGACAUGAGGAUCACCCAUGUUAGCGAUGGCAUUACGGUAGAAGGCUCUACAGCUGC [Soteed - 4] (puzzle: Same State 2)”, the “apparent KD of MS2 coat protein” value under setting [2] is 0.026 µM.

As to “UGGUACAUGGGAGGAUAUGGGCAAGGGACAUGAGGAUCACCCAUGUAUUAAAAGCCGAAAGGCAUCUAGAAGGCCCAUGUACCU [JL SSNG1 3.87] (Eterna round: R96, puzzle: Same State NG 2)”, the “apparent KD of MS2 coat protein” value was 0.014 µM (input ligand: FMN 200 uM), 0.0427 µM under setting [4] and 0.0502 µM (input ligand: none).

Consider “GCGAGCGUACUUGCUACAUGAGGAUCACCCAUGUUAACUGGACAGGAUAUGGUACCGUUUCGGUACCAGAAGGGUUCAUCAUGU [JL SSNG3 3.68] (Eterna round: R96, puzzle: Same State NG 3)”, for which the “apparent KD of MS2 coat protein” value (input ligand: FMN 200 uM) amounted to 0.306 µM, the “apparent KD of MS2 coat protein” value under setting [4] worked out at 0.245 µM and the “apparent KD of MS2 coat protein” value (input ligand: none) came to 0.665 µM.

On to “GUUACAUGAGGAUCACCCAUGUAUGUGUGGGAGUAAGUGUCUUAGGAUAUCUAUCAAUUAAUUUAAGAGAAGGAAGAUUGUUGU [JMF's solution 89] (Eterna round: R96, puzzle: Same State NG 3)”, for which the “apparent KD of MS2 coat protein” value (input ligand: FMN 200 uM) was determined as 0.116 µM, the “apparent KD of MS2 coat protein” value under setting [4] was determined as 0.094 µM and the “apparent KD of MS2 coat protein” value (input ligand: none) is 0.11 µM.

Consider “CAAACUUAGUAGGAUAGGUACCCAGGAUGACAUGAGGAUCACCCAUGUAAGAGCUUUUUGCUCGUCAUUAACAGUUG [JR_SHM208a_Sub017] (puzzle: Sensor for hsa-mir-208a)”, for which the “apparent KD of MS2 coat protein” value is, setting by setting: under setting [1], 0.0517 µM; under setting [2], 0.053 µM; under setting [3], 0.0783 µM.

With “GGAGCCGGCACUGAGGAUAUUCGUAUUAAAACAUGAGGAUCACCCAUGUAGGCCAGAAGGCCUUGGGAGAAGGCAGGUCGACUCG [Diqureveri - 2] (puzzle: Same State 2)”, the “apparent KD of MS2 coat protein” value amounted to 0.0172 µM under setting [1], 0.0389 µM under setting [2] and 0.0597 µM under setting [3].

Regarding “UGUUGUAUUACAGGAUAUCUAUUGUAUUUAUUUAGAGAAGGGUAUUCACAUGAGGAUCACCCAUGUAUAUACGAGGAAGUUGUG [JMF's solution 73] (Eterna round: R96, puzzle: Same State NG 1)”, the “apparent KD of MS2 coat protein” value under setting [4] was determined as 0.0467 µM.

For the sequence “GUAGCAUACCGAGGAUAUUCAUAUAAUAACAUGAGGAUCACCCAUGUAUAUAGGCGAAAGCCUUGGGAGAAGGCGGAAUGCUAC [Xeonanis - 20 Mod64] (Eterna round: R96, puzzle: Same State NG 2)”, the “apparent KD of MS2 coat protein” value by setting is: (input ligand: FMN 200 uM) 0.0171 µM; under setting [4], 0.0189 µM; (input ligand: none) 0.031 µM.
